# T1: 人CD20 (human) (UniProt P11836)
# T1 sequence (looked up): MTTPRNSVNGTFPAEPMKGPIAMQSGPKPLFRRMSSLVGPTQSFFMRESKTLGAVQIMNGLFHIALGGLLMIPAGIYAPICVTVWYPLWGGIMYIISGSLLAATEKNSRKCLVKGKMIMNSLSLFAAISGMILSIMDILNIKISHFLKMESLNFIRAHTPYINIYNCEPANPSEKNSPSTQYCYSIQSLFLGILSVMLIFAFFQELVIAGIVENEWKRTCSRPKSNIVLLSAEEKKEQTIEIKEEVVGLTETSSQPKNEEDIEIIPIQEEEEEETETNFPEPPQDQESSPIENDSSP
# B1: 鼠抗人CD20[ZXCloneHCD20-07] (antibody, V domains shown)
# VH: QVQLQQPGAELVKPGASVKMSCKASGYTFTSYNIHWVKQTPGQGLEWIGAIYPGNGDTSHNQKFKGKATLTADRSSSTAYMQFSSLTSEDSAVYYCARSRRYDGDWSFDVWGAGTTVTVSS
# VL: QIVLTQSPAIMSASPGEKVTMTCSASSFITYMHWFQQKSGTSPKRWIYDTSKLASGVPARFSGSGSGTSYSLTISSMEAEDAATYYCQQWNSNPPTFGGGTKLEIKR
# Target: T1, 人CD20 (human)
# Test: flow cytometry titration on lysed human blood cells, dilutions 1:100 to 1:96000 of 1 mg/mL antibody, goat anti-mouse IgG-PE detection
molecule,measurement,value
商品化鼠抗人CD20[2H7]抗体 (Biolegend) (antibody),亲和力(kd),195 (1mg/mL)
B1,亲和力(kd),190 (1mg/mL)
